Reference: patent US20220251546

Target: T1, IFIT5 (rhIFIT5) (Homo sapiens) (UniProt Q13325)
T1 sequence: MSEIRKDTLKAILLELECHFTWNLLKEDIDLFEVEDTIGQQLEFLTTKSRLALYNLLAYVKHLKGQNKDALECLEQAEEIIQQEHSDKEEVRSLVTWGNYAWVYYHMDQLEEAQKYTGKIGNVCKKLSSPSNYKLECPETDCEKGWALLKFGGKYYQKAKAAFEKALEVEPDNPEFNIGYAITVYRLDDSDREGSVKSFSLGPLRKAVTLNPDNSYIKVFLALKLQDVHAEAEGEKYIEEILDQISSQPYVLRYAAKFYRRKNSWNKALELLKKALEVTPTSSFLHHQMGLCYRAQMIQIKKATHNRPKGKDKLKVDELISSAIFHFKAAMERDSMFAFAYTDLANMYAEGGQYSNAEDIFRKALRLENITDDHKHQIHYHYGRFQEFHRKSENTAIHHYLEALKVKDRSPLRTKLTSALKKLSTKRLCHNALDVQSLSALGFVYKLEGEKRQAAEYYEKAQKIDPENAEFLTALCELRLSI
Experiment: pulldown
Conditions: 5'-triphosphate; approx. 10-fold enrichment vs 16S rRNA, over 20-fold vs 23S rRNA by RT-qPCR

Listeria Lmo2210 mRNA and LhrC sRNA showed a binding signal of 10 fold.
